Source: the supplement of paper PMC9112550, “Optimization of the antimicrobial peptide Bac7 by deep mutational scanning” (BMC Biology, 2022)

What follows are sequences tested on Escherichia coli TOP10 (assay: shrunken log2 fold change of peptide-encoding DNA abundance (4.5 h post-induction vs induction); higher = less antimicrobial activity (less host growth inhibition)). Settings: time post-induction: 4.5 h; library: site-saturation at positions 5, 18, 19, 20.
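Also: peptides expressed intracellularly from a pBAD plasmid library in pooled LB shake-flask culture, induced with 0.3% L-arabinose, DNA abundance read by NGS, three biological replicates, DESeq2 with apeglm shrinkage.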

Row | Sequence | shrunken log2 fold change
1 | RRIRYRPPRLPRPRPRPRTTPRP | -0.011
2 | RRIRYRPPRLPRPRPRPRVRPRP | 0.175
3 | RRIRYRPPRLPRPRPRPRWSPRP | -0.225
4 | RRIRYRPPRLPRPRPRPRYDPRP | -0.21
5 | RRIRYRPPRLPRPRPRPRYNPRP | -0.339
6 | RRIRYRPPRLPRPRPRPSANPRP | -0.0919
7 | RRIRYRPPRLPRPRPRPSCAPRP | -0.921
8 | RRIRYRPPRLPRPRPRPSDGPRP | -0.327
9 | RRIRYRPPRLPRPRPRPSGWPRP | -0.00312
10 | RRIRYRPPRLPRPRPRPSGYPRP | -0.714
11 | RRIRYRPPRLPRPRPRPSHLPRP | -0.286
12 | RRIRYRPPRLPRPRPRPSHQPRP | -0.594
13 | RRIRYRPPRLPRPRPRPSIAPRP | -0.216
14 | RRIRYRPPRLPRPRPRPSINPRP | -0.39
15 | RRIRYRPPRLPRPRPRPSLCPRP | -0.109
16 | RRIRYRPPRLPRPRPRPSMGPRP | -0.613
17 | RRIRYRPPRLPRPRPRPSNDPRP | -0.29
18 | RRIRYRPPRLPRPRPRPSNHPRP | -0.29
19 | RRIRYRPPRLPRPRPRPSRCPRP | -0.154
20 | RRIRYRPPRLPRPRPRPSRDPRP | 0.0382
21 | RRIRYRPPRLPRPRPRPSRRPRP | 0.0397
22 | RRIRYRPPRLPRPRPRPSRSPRP | 0.134

Row | Sequence | shrunken log2 fold change
23 | RRIRYRPPRLPRPRPRPSRYPRP | -0.122
24 | RRIRYRPPRLPRPRPRPSTAPRP | -0.0926
25 | RRIRYRPPRLPRPRPRPSTLPRP | -0.853
26 | RRIRYRPPRLPRPRPRPSVCPRP | -0.769
27 | RRIRYRPPRLPRPRPRPSWDPRP | -0.429
28 | RRIRYRPPRLPRPRPRPSYDPRP | -0.442
29 | RRIRYRPPRLPRPRPRPTADPRP | -0.119
30 | RRIRYRPPRLPRPRPRPTAGPRP | 0.111
31 | RRIRYRPPRLPRPRPRPTGKPRP | 0.019
32 | RRIRYRPPRLPRPRPRPTHIPRP | -1.04
33 | RRIRYRPPRLPRPRPRPTIHPRP | -1.2
34 | RRIRYRPPRLPRPRPRPTLTPRP | -0.0404
35 | RRIRYRPPRLPRPRPRPTLVPRP | -0.0641
36 | RRIRYRPPRLPRPRPRPTLWPRP | 0.31
37 | RRIRYRPPRLPRPRPRPTMNPRP | -0.446
38 | RRIRYRPPRLPRPRPRPTNEPRP | -0.586
39 | RRIRYRPPRLPRPRPRPTNMPRP | -0.541
40 | RRIRYRPPRLPRPRPRPTNVPRP | -0.868
41 | RRIRYRPPRLPRPRPRPTQAPRP | -0.00154
42 | RRIRYRPPRLPRPRPRPTQVPRP | 0.188
43 | RRIRYRPPRLPRPRPRPTRTPRP | -0.0719
44 | RRIRYRPPRLPRPRPRPTSHPRP | -0.611

Row | Sequence | shrunken log2 fold change
45 | RRIRYRPPRLPRPRPRPTTVPRP | -0.243
46 | RRIRYRPPRLPRPRPRPTWHPRP | -0.349
47 | RRIRYRPPRLPRPRPRPTWRPRP | 0.104
48 | RRIRYRPPRLPRPRPRPTWVPRP | 0.18
49 | RRIRYRPPRLPRPRPRPTWWPRP | 0.134
50 | RRIRYRPPRLPRPRPRPTYNPRP | -1.32
51 | RRIRYRPPRLPRPRPRPVAKPRP | -0.128
52 | RRIRYRPPRLPRPRPRPVCLPRP | -0.365
53 | RRIRYRPPRLPRPRPRPVDHPRP | -0.328
54 | RRIRYRPPRLPRPRPRPVFHPRP | -0.492
55 | RRIRYRPPRLPRPRPRPVGAPRP | 0.252
56 | RRIRYRPPRLPRPRPRPVIYPRP | -0.0529
57 | RRIRYRPPRLPRPRPRPVKCPRP | -1.32
58 | RRIRYRPPRLPRPRPRPVKLPRP | 0.0698
59 | RRIRYRPPRLPRPRPRPVKWPRP | 0.0689
60 | RRIRYRPPRLPRPRPRPVLLPRP | -0.109
61 | RRIRYRPPRLPRPRPRPVMTPRP | -0.09
62 | RRIRYRPPRLPRPRPRPVNRPRP | -0.655
63 | RRIRYRPPRLPRPRPRPVPVPRP | -0.24
64 | RRIRYRPPRLPRPRPRPVQDPRP | -0.00208
65 | RRIRYRPPRLPRPRPRPVQNPRP | -0.0153
66 | RRIRYRPPRLPRPRPRPVQTPRP | -0.00992

Row | Sequence | shrunken log2 fold change
67 | RRIRYRPPRLPRPRPRPVTAPRP | -0.298
68 | RRIRYRPPRLPRPRPRPVTIPRP | -0.0242
69 | RRIRYRPPRLPRPRPRPVVGPRP | -0.172
70 | RRIRYRPPRLPRPRPRPVWAPRP | 0.205
71 | RRIRYRPPRLPRPRPRPVWKPRP | 0.0654
72 | RRIRYRPPRLPRPRPRPVWRPRP | 0.119
73 | RRIRYRPPRLPRPRPRPVWSPRP | -0.337
74 | RRIRYRPPRLPRPRPRPWFYPRP | -1.48
75 | RRIRYRPPRLPRPRPRPWGYPRP | -0.0919
76 | RRIRYRPPRLPRPRPRPWHAPRP | -0.25
77 | RRIRYRPPRLPRPRPRPWHYPRP | -0.809
78 | RRIRYRPPRLPRPRPRPWIMPRP | -0.253
79 | RRIRYRPPRLPRPRPRPWLHPRP | -0.991
80 | RRIRYRPPRLPRPRPRPWMGPRP | -0.294
81 | RRIRYRPPRLPRPRPRPWPAPRP | 0.00297
82 | RRIRYRPPRLPRPRPRPWRTPRP | -0.298
83 | RRIRYRPPRLPRPRPRPWSRPRP | -0.205
84 | RRIRYRPPRLPRPRPRPWWTPRP | -0.333
85 | RRIRYRPPRLPRPRPRPWYDPRP | -0.109
86 | RRIRYRPPRLPRPRPRPYAAPRP | -0.546
87 | RRIRYRPPRLPRPRPRPYAKPRP | -1.76
88 | RRIRYRPPRLPRPRPRPYANPRP | -0.474

Row | Sequence | shrunken log2 fold change
89 | RRIRYRPPRLPRPRPRPYCAPRP | -0.899
90 | RRIRYRPPRLPRPRPRPYDMPRP | -1.35
91 | RRIRYRPPRLPRPRPRPYDNPRP | -0.0463
92 | RRIRYRPPRLPRPRPRPYEGPRP | -0.00776
93 | RRIRYRPPRLPRPRPRPYGPPRP | -0.143
94 | RRIRYRPPRLPRPRPRPYHFPRP | -0.535
95 | RRIRYRPPRLPRPRPRPYHNPRP | -0.525
96 | RRIRYRPPRLPRPRPRPYIKPRP | -1.3
97 | RRIRYRPPRLPRPRPRPYKAPRP | 0.019
98 | RRIRYRPPRLPRPRPRPYKFPRP | -0.0196
99 | RRIRYRPPRLPRPRPRPYKGPRP | -0.721
100 | RRIRYRPPRLPRPRPRPYLHPRP | -0.0309
101 | RRIRYRPPRLPRPRPRPYMCPRP | -0.0233
102 | RRIRYRPPRLPRPRPRPYNPPRP | -0.256
103 | RRIRYRPPRLPRPRPRPYQHPRP | -1.87
104 | RRIRYRPPRLPRPRPRPYTEPRP | 0.034
105 | RRIRYRPPRLPRPRPRPYTNPRP | -1.35
106 | RRIRYRPPRLPRPRPRPYTTPRP | -0.554
107 | RRIRYRPPRLPRPRPRPYVKPRP | -1.12
108 | RRIRYRPPRLPRPRPRPYVLPRP | -0.35
109 | RRIRYRPPRLPRPRPRPYVSPRP | -0.0075
